B1: Krix-1 (human monoclonal antibody KRIX-1 produced in a human lymphoblastoid cell line, native glycosylation) (antibody, human IgG4, V domains shown)
VH: QVQLVQSGAEVKKPGASVKVSCKTSGYNFTGYSASGHIFTAYSVHWVRQAPGQGLEWMGRINPNSGATDYAHKFQGRVTMSRDTSISTAYMELSRLTSDDTAMYYCARADNYFDIVTGYTSHYFDYWGRGTLVTVSSASTKGPSVF
VL: EIVLTQSPGTLSLSPGERATLSCRASQSVASAYLAWYQQKPGQAPRLLIYGASSRATDIPHRFSGSGSGTDFTLTISRLEPEDFAVYYCQQYGTSALLTFGGGTKVEIKRTVAAPSVFIFPPS
modifications: here or on the partner: N-linked glycosylation site at Asn47-Thr49, native glycan as made by the lymphoblastoid cell line
B2: RHD5 (human monoclonal antibody from the lymphoblastoid cell line RHD5) (antibody, V domains shown)
VH: QVQLVQSGAEVKKPGSSVMVSCKASGGTFSSFGISWVRQAPGQGLEWVGGIIPIFGTANTARNFQNRVTITADEFTSTAYIRLRSLRSEDTAVYYCVGGRDAYSFDGFDVWGQGTMVTVSSASTKGPSVFP
VL: SSGLTQPHSVSVSPGQTANITCSRDKLGHKFASWYQQKPGQSPALLIYQDSKRPSGIPERFSGSNSGNTATLTISGTQAMDEADYYCQAWDNTTAVFGGGTKLTVLSQPKAAPSVTLFPPS
B3: deglycosylated KRIX-1 (Krix-1 treated with N-glycosidase-F) (antibody, IgG4, V domains shown)
VH: QVQLVQSGAEVKKPGASVKVSCKTSGYNFTGYSASGHIFTAYSVHWVRQAPGQGLEWMGRINPNSGATDYAHKFQGRVTMSRDTSISTAYMELSRLTSDDTAMYYCARADNYFDIVTGYTSHYFDYWGRGTLVTVSSASTKGPSVF
VL: EIVLTQSPGTLSLSPGERATLSCRASQSVASAYLAWYQQKPGQAPRLLIYGASSRATDIPHRFSGSGSGTDFTLTISRLEPEDFAVYYCQQYGTSALLTFGGGTKVEIKRTVAAPSVFIFPPS
modifications: here or on the partner: N-linked glycan removed by N-glycosidase-F (2 U/ml, 72 h, 37 C)

Experiments:
[1] = biological target: FVIII in a pool of normal human plasma (human), P00451; test: cell-based or functional assay
Chain of FVIII in a pool of normal human plasma (human), P00451 (P00451 20-2351): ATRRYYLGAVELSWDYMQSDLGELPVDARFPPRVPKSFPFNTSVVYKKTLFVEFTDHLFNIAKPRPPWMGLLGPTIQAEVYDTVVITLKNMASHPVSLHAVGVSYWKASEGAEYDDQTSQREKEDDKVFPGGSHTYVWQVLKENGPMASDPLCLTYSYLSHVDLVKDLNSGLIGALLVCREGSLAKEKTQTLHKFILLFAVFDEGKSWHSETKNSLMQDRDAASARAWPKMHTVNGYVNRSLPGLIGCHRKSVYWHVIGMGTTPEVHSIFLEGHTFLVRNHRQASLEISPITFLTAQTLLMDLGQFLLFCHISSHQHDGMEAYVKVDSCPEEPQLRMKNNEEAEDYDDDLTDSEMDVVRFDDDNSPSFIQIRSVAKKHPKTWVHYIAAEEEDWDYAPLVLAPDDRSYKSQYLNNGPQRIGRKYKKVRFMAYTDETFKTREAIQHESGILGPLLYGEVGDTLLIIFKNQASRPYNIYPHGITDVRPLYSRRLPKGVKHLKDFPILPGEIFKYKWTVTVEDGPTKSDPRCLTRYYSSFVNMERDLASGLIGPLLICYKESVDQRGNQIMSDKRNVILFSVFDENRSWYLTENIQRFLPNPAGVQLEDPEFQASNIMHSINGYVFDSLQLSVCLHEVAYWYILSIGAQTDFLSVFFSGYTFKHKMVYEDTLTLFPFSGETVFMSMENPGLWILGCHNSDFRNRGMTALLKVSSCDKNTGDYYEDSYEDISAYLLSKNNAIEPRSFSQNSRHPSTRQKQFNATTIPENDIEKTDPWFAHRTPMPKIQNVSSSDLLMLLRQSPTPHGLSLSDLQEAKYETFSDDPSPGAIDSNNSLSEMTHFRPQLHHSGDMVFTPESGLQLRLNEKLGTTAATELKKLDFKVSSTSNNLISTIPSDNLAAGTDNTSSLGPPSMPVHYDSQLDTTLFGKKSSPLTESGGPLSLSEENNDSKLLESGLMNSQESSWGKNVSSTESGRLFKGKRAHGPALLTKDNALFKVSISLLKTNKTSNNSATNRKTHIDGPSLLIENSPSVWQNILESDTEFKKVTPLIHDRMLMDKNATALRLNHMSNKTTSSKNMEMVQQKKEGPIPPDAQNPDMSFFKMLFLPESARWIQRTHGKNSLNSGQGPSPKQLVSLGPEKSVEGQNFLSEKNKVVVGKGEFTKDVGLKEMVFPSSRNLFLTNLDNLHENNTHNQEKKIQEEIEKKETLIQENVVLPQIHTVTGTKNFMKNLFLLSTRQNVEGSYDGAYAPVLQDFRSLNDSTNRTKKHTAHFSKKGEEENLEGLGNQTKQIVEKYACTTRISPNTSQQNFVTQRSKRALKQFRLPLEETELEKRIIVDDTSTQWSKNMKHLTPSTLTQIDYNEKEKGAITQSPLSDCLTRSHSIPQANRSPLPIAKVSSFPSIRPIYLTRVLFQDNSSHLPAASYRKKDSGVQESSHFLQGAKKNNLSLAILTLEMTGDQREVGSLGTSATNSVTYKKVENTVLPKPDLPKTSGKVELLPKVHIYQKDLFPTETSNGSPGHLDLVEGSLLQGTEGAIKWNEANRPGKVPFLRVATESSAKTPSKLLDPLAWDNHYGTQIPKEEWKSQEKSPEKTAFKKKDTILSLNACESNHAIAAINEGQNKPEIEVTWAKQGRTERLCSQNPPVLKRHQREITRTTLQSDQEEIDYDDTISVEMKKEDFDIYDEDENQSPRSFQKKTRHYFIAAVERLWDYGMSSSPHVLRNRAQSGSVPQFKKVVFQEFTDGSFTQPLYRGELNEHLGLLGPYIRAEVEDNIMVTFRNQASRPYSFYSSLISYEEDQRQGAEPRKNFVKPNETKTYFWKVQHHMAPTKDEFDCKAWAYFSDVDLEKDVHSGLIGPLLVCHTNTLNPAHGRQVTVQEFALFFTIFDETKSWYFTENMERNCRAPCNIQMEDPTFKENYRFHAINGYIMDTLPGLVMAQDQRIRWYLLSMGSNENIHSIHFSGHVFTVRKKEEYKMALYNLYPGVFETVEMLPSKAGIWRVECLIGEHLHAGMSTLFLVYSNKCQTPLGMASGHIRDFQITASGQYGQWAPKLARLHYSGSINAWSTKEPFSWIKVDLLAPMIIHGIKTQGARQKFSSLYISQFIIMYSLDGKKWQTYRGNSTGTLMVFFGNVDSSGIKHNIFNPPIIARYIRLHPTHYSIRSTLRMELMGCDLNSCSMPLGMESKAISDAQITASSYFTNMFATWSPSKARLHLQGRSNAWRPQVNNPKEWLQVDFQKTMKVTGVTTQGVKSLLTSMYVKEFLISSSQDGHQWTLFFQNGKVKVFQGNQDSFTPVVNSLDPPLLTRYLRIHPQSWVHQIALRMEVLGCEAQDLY

[2] = biological target: full length recombinant FVIII (Recombinate, Baxter), P00451; test: cell-based or functional assay
Chain of full length recombinant FVIII (Recombinate, Baxter), P00451 (P00451 20-2351): as above

Row | Binder | inhibition of FVIII activity (chromogenic assay, normal human plasma) [1] | maximal inhibition of FVIII activity (Bethesda assay, chromogenic FVIII assay) [1] | inhibition of FVIII activity at a final concentration of RHD5 of 100 microgram/ml (Bethesda assay, plasma) [1] | inhibition of FVIII activity at a final concentration of RHD5 of 100 microgram/ml (Bethesda assay, full length recombinant FVIII) [2] | maximal inhibition (plateau inhibition) of FVIII activity (Bethesda assay, chromogenic FVIII assay) [1]
1 | B1 | 90% | 90% |  |  | 
2 | B2 |  |  | 97% | 98% | 
3 | B3 | 50% |  |  |  | 50%
